The values below are quoted from earlier work in article PMC8878198.

This series deals with CXCL8 (Homo sapiens) (UniProt P10145).
CXCL8 (Homo sapiens), sequence (P10145 28-99): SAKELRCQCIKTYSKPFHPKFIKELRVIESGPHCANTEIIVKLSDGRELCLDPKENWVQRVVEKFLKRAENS

CXCR2, sequence (P25025 whole entry): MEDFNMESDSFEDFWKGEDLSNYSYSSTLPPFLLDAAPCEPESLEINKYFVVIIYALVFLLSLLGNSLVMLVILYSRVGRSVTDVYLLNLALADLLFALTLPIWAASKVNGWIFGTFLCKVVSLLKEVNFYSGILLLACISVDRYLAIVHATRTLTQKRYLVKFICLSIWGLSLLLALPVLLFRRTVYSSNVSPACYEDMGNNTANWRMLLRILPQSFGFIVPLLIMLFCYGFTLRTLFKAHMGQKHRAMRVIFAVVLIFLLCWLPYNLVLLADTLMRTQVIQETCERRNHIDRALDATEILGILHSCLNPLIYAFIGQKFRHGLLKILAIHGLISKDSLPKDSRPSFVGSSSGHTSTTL

By Kd is commonly meant the constant that tells how readily two partners part at equilibrium. Regarding CXCR2 (from UniProt P25025), the Kd is 0.7 nM.
